Values joined by “and” are separate entries in the source; they are usually repeats but may differ in a detail not shown here. Equal entries are not always repeated.
What was measured:
[1] = target: HLA-A*24:02 peptide-MHC class I (biotinylated pMHCI); test: SPR; biotinylated ligands (pMHCI, MR1, CD1) captured on streptavidin coupled to a CM5 chip; serial dilution of each CD8-Fc fusion injected; steady-state responses, 1:1 Langmuir fit; BIAcore T200, 25°C, PBS with 0.005% Tween 20
[2] = target: HLA-A*03:01 with peptide […]; test: SPR
[3] = target: MHCI-related protein 1 (MR1) with β-2 microglobulin, biotinylated, loaded with model ligands (UniProt Q95460); test: SPR; biotinylated ligands (pMHCI, MR1, CD1) captured on streptavidin coupled to a CM5 chip; serial dilution of each CD8-Fc fusion injected; steady-state responses, 1:1 Langmuir fit; BIAcore T200, 25°C, PBS with 0.005% Tween 20
[4] = target: MHCI-related protein 1 (MR1) with β2m, loaded with 5-(2-oxopropylideneamino)-6-d-ribitylaminouracil (human) (UniProt Q95460); test: SPR; BIAcore T200, CM5 chip with streptavidin; biotinylated pMHCI, MR1 or CD1 captured; serial dilution of CD8-Fc fusion injected; 25°C, PBS with 0.005% Tween 20; steady-state responses, 1:1 Langmuir fit
[5] = target: MHCI-related protein 1 (MR1) with β2m, loaded with 5-formyl salicylic acid (human) (UniProt Q95460); test: as above
[6] = target: MHCI-related protein 1 (MR1) with β2m, loaded with 6-formylpterin (human) (UniProt Q95460); test: as above

soluble human CD8αβ-Fc heterodimer (from UniProt P01732 22-182; P10966 22-170) (Fc fusion)
Kd [1]: 230 µM
Kd [2]: 127 µM

soluble human CD8αα-Fc homodimer (from UniProt P01732 22-182) (Fc fusion)
Kd [3]: 250 µM
Kd [4]: 248 µM and 274 µM
Kd [5]: 222 µM and 236 µM
Kd [6]: 248 µM and 280 µM

Source: paper PMC11739670
